In paper PMC3763369 (Structure(London, England:1993), 2013):
Blank lines part the entries; values can stand above or below the binder they belong to.

Assays:
FANCM CTD;FAAP24 = target: T1, FANCM CTD;FAAP24 (human?;human?, UniProt Q8IYD8;Q9BTP7 1799-2048;1-215, |); test: X-ray crystallography
T1 sequence 1: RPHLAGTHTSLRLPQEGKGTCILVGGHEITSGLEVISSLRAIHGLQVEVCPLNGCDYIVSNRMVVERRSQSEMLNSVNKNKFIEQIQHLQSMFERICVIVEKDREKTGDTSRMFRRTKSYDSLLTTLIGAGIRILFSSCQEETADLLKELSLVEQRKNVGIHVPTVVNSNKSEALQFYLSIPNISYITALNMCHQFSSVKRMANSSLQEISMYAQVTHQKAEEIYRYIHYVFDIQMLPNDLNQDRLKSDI
T1 sequence 2: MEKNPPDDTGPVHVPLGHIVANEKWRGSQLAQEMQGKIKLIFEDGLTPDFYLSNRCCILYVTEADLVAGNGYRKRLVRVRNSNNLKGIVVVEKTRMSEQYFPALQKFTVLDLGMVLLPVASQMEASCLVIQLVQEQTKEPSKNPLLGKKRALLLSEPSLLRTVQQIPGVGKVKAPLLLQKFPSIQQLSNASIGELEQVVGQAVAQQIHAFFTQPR

[1] = target: T2, FANCM C-terminal fragment (FANCMCTD), residues 1,799-2,048 (human, UniProt Q8IYD8 1799-2048); test: crystal structure
T2 sequence (looked up): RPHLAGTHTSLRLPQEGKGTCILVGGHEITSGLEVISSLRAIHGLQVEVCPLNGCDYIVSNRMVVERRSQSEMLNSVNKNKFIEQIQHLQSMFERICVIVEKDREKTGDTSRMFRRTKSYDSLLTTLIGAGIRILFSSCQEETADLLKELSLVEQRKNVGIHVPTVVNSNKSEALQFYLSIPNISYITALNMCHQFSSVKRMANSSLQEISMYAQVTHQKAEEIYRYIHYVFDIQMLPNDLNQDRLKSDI

[2] = target: full-length FANCM (N-terminal Flag-tag, C-terminal 8His-tag) (human, UniProt Q8IYD8 1-2048); test: negative-stain single particle electron microscopy

B1: 11 bp crystallization duplex (dsDNA)
DNA 1: GATGATGCTGA
DNA 2: TCAGCATCATC
binding result (FANCM CTD;FAAP24): binds

binding result [1]: binds
B2: FAAP24 (full length), partner in the FANCMCTD-FAAP24 complex (natural protein, human, UniProt Q9BTP7 1-215, looked up)
chain: MEKNPPDDTGPVHVPLGHIVANEKWRGSQLAQEMQGKIKLIFEDGLTPDFYLSNRCCILYVTEADLVAGNGYRKRLVRVRNSNNLKGIVVVEKTRMSEQYFPALQKFTVLDLGMVLLPVASQMEASCLVIQLVQEQTKEPSKNPLLGKKRALLLSEPSLLRTVQQIPGVGKVKAPLLLQKFPSIQQLSNASIGELEQVVGQAVAQQIHAFFTQPR

binding result [2]: binds
B3: FAAP24, untagged, co-expressed with full-length FANCM (natural protein, human, UniProt Q9BTP7 1-215, looked up)
chain: MEKNPPDDTGPVHVPLGHIVANEKWRGSQLAQEMQGKIKLIFEDGLTPDFYLSNRCCILYVTEADLVAGNGYRKRLVRVRNSNNLKGIVVVEKTRMSEQYFPALQKFTVLDLGMVLLPVASQMEASCLVIQLVQEQTKEPSKNPLLGKKRALLLSEPSLLRTVQQIPGVGKVKAPLLLQKFPSIQQLSNASIGELEQVVGQAVAQQIHAFFTQPR
